Measurements as given in article PMC13462943, “De novo EHMT2 variants cause an autosomal dominant EHMT2-related Kleefstra syndrome via loss of G9a methyltransferase activity” (Nature Communications, 2026).

Target: the molecule itself
Assay: native MS; dimerization of apo proteins: 5 µM protein in 150 mM ammonium acetate pH 7.5, 0.5 mM DTT; monomer-dimer distribution quantified

Protein | stoichiometry N
G9a methyltransferase domain (aa residues 913-1193), Del 1076-9 (domain or fragment, human, UniProt Q96KQ7-1 913-1193, looked up, G9a (EHMT2), human, methyltransferase (SET) domain, aa residues 913-1193, patient variant; numbered on NP_006700.3; also called p.Glu1076_Val1079del; c.3225_3236del; source: E. coli BL21-CodonPlus (DE3)-RIPL, pET28a, purified (IMAC, TEV cleavage, SEC, second IMAC); not shown: His6, N-terminal, cleaved) NRAIRTEKIICRDVARGYENVPIPCVNGVDGEPCPEDYKYISENCETSTMNIDRNITHLQHCTCVDDCSSSNCLCGQLSIRCWYDKDGRLLQEFNKIEPPLIFECNQACSCWRNCKNRVVQSGIKVRLQLYRTAKMGWGVRALQTIPQGTFICEYVGELISDAREDDSYLFDLDNKDGEVYCIDARYYGNISRFINHLCDPNIIPVRVFMLHQDLRFPRIAFFSSRDIRTGEELGFDYGDRFWDIKSKYFTCQCGSEKCKHSAEAIALEQSRLARLD | 2
G9a methyltransferase domain (aa residues 913-1193), K1162R (domain or fragment, human, UniProt Q96KQ7-1 913-1193, looked up, G9a (EHMT2), human, methyltransferase (SET) domain, aa residues 913-1193, patient variant; numbered on NP_006700.3; De novo patient variant made by site-directed mutagenesis; also called p.Lys1162Arg; c.3485A>G; source: E. coli BL21-CodonPlus (DE3)-RIPL, pET28a, purified (IMAC, TEV cleavage, SEC, second IMAC); not shown: His6, N-terminal, cleaved) NRAIRTEKIICRDVARGYENVPIPCVNGVDGEPCPEDYKYISENCETSTMNIDRNITHLQHCTCVDDCSSSNCLCGQLSIRCWYDKDGRLLQEFNKIEPPLIFECNQACSCWRNCKNRVVQSGIKVRLQLYRTAKMGWGVRALQTIPQGTFICEYVGELISDAEADVREDDSYLFDLDNKDGEVYCIDARYYGNISRFINHLCDPNIIPVRVFMLHQDLRFPRIAFFSSRDIRTGEELGFDYGDRFWDIRSKYFTCQCGSEKCKHSAEAIALEQSRLARLD | 2
G9a methyltransferase domain (aa residues 913-1193), A1077T (domain or fragment, human, UniProt Q96KQ7-1 913-1193, looked up, G9a (EHMT2), human, methyltransferase (SET) domain, aa residues 913-1193, patient variant; numbered on NP_006700.3; De novo patient variant made by site-directed mutagenesis; also called p.Ala1077Thr; c.3229G>A; source: E. coli BL21-CodonPlus (DE3)-RIPL, pET28a, purified (IMAC, TEV cleavage, SEC, second IMAC); not shown: His6, N-terminal, cleaved) NRAIRTEKIICRDVARGYENVPIPCVNGVDGEPCPEDYKYISENCETSTMNIDRNITHLQHCTCVDDCSSSNCLCGQLSIRCWYDKDGRLLQEFNKIEPPLIFECNQACSCWRNCKNRVVQSGIKVRLQLYRTAKMGWGVRALQTIPQGTFICEYVGELISDAETDVREDDSYLFDLDNKDGEVYCIDARYYGNISRFINHLCDPNIIPVRVFMLHQDLRFPRIAFFSSRDIRTGEELGFDYGDRFWDIKSKYFTCQCGSEKCKHSAEAIALEQSRLARLD | 2
G9a methyltransferase domain (aa residues 913-1193), F1158L (domain or fragment, human, UniProt Q96KQ7-1 913-1193, looked up, G9a (EHMT2), human, methyltransferase (SET) domain, aa residues 913-1193, patient variant; numbered on NP_006700.3; De novo patient variant made by site-directed mutagenesis; also called p.Phe1158Leu; c.3472T>C; source: E. coli BL21-CodonPlus (DE3)-RIPL, pET28a, purified (IMAC, TEV cleavage, SEC, second IMAC); not shown: His6, N-terminal, cleaved) NRAIRTEKIICRDVARGYENVPIPCVNGVDGEPCPEDYKYISENCETSTMNIDRNITHLQHCTCVDDCSSSNCLCGQLSIRCWYDKDGRLLQEFNKIEPPLIFECNQACSCWRNCKNRVVQSGIKVRLQLYRTAKMGWGVRALQTIPQGTFICEYVGELISDAEADVREDDSYLFDLDNKDGEVYCIDARYYGNISRFINHLCDPNIIPVRVFMLHQDLRFPRIAFFSSRDIRTGEELGFDYGDRLWDIKSKYFTCQCGSEKCKHSAEAIALEQSRLARLD | 2
G9a methyltransferase domain (aa residues 913-1193), N1112S (domain or fragment, human, UniProt Q96KQ7-1 913-1193, looked up, G9a (EHMT2), human, methyltransferase (SET) domain, aa residues 913-1193, patient variant; numbered on NP_006700.3; De novo patient variant made by site-directed mutagenesis; also called p.Asn1112Ser; c.3335A>G; source: E. coli BL21-CodonPlus (DE3)-RIPL, pET28a, purified (IMAC, TEV cleavage, SEC, second IMAC); not shown: His6, N-terminal, cleaved) NRAIRTEKIICRDVARGYENVPIPCVNGVDGEPCPEDYKYISENCETSTMNIDRNITHLQHCTCVDDCSSSNCLCGQLSIRCWYDKDGRLLQEFNKIEPPLIFECNQACSCWRNCKNRVVQSGIKVRLQLYRTAKMGWGVRALQTIPQGTFICEYVGELISDAEADVREDDSYLFDLDNKDGEVYCIDARYYGNISRFISHLCDPNIIPVRVFMLHQDLRFPRIAFFSSRDIRTGEELGFDYGDRFWDIKSKYFTCQCGSEKCKHSAEAIALEQSRLARLD | 2
G9a methyltransferase domain (aa residues 913-1193), A1077S (domain or fragment, human, UniProt Q96KQ7-1 913-1193, looked up, G9a (EHMT2), human, methyltransferase (SET) domain, aa residues 913-1193, patient variant; numbered on NP_006700.3; De novo patient variant made by site-directed mutagenesis; also called p.Ala1077Ser; c.3229G>T; source: E. coli BL21-CodonPlus (DE3)-RIPL, pET28a, purified (IMAC, TEV cleavage, SEC, second IMAC); not shown: His6, N-terminal, cleaved) NRAIRTEKIICRDVARGYENVPIPCVNGVDGEPCPEDYKYISENCETSTMNIDRNITHLQHCTCVDDCSSSNCLCGQLSIRCWYDKDGRLLQEFNKIEPPLIFECNQACSCWRNCKNRVVQSGIKVRLQLYRTAKMGWGVRALQTIPQGTFICEYVGELISDAESDVREDDSYLFDLDNKDGEVYCIDARYYGNISRFINHLCDPNIIPVRVFMLHQDLRFPRIAFFSSRDIRTGEELGFDYGDRFWDIKSKYFTCQCGSEKCKHSAEAIALEQSRLARLD | 2
G9a methyltransferase domain (aa residues 913-1193), wild type (domain or fragment, human, UniProt Q96KQ7-1 913-1193, looked up, G9a (EHMT2), human, methyltransferase (SET) domain, aa residues 913-1193; variants numbered on NP_006700.3; His tag removed by TEV protease; also called EHMT2; euchromatin histone lysine methyltransferase 2; source: E. coli BL21-CodonPlus (DE3)-RIPL, pET28a, purified (IMAC, TEV cleavage, SEC, second IMAC); not shown: His6, N-terminal, cleaved) NRAIRTEKIICRDVARGYENVPIPCVNGVDGEPCPEDYKYISENCETSTMNIDRNITHLQHCTCVDDCSSSNCLCGQLSIRCWYDKDGRLLQEFNKIEPPLIFECNQACSCWRNCKNRVVQSGIKVRLQLYRTAKMGWGVRALQTIPQGTFICEYVGELISDAEADVREDDSYLFDLDNKDGEVYCIDARYYGNISRFINHLCDPNIIPVRVFMLHQDLRFPRIAFFSSRDIRTGEELGFDYGDRFWDIKSKYFTCQCGSEKCKHSAEAIALEQSRLARLD | 2
GLP methyltransferase domain (aa 1001-1266), wild type (domain or fragment, human, UniProt Q9H9B1-1 1001-1266, looked up, GLP (EHMT1), human, methyltransferase (SET) domain, aa 1001-1266; NM_024757.5 is printed for the EHMT1 variant of the Kleefstra syndrome 1 patient, not expressly for this construct; also called EHMT1; euchromatin histone lysine methyltransferase 1; source: E. coli BL21-CodonPlus (DE3)-RIPL, pET28a, purified (IMAC, TEV cleavage, SEC, second IMAC); not shown: His6, N-terminal, cleaved) DRPSPVERIVSRDIARGYERIPIPCVNAVDSEPCPSNYKYVSQNCVTSPMNIDRNITHLQYCVCIDDCSSSNCMCGQLSMRCWYDKDGRLLPEFNMAEPPLIFECNHACSCWRNCRNRVVQNGLRARLQLYRTRDMGWGVRSLQDIPPGTFVCEYVGELISDSEADVREEDSYLFDLDNKDGEVYCIDARFYGNVSRFINHHCEPNLVPVRVFMAHQDLRFPRIAFFSTRLIEAGEQLGFDYGERFWDIKGKLFSCRCGSPKCRHS | 2
G9a methyltransferase domain (aa residues 913-1193), Del 1163-4 (domain or fragment, human, UniProt Q96KQ7-1 913-1193, looked up, G9a (EHMT2), human, methyltransferase (SET) domain, aa residues 913-1193, patient variant; numbered on NP_006700.3; De novo patient variant made by site-directed mutagenesis; also called p.Ser1163_Lys1164del; c.3487_3492del; source: E. coli BL21-CodonPlus (DE3)-RIPL, pET28a, purified (IMAC, TEV cleavage, SEC, second IMAC); not shown: His6, N-terminal, cleaved) NRAIRTEKIICRDVARGYENVPIPCVNGVDGEPCPEDYKYISENCETSTMNIDRNITHLQHCTCVDDCSSSNCLCGQLSIRCWYDKDGRLLQEFNKIEPPLIFECNQACSCWRNCKNRVVQSGIKVRLQLYRTAKMGWGVRALQTIPQGTFICEYVGELISDAEADVREDDSYLFDLDNKDGEVYCIDARYYGNISRFINHLCDPNIIPVRVFMLHQDLRFPRIAFFSSRDIRTGEELGFDYGDRFWDIKYFTCQCGSEKCKHSAEAIALEQSRLARLD | 2
